The assay deals with Klebsiella phage GH-K3-derived depolymerase Depo32 (Klebsiella phage GH-K3). Description: cryo-EM structure; Depo32 purified by size exclusion chromatography, 0.5-1.0 mg/mL, on glow-discharged C-flat carbon grids; 2.46 Å nonsymmetrized and 2.32 Å C3-symmetrized maps; homotrimer. (In general: Size exclusion chromatography separates by hydrodynamic size, large species first.)

“Klebsiella phage GH-K3-derived depolymerase Depo32 (enzyme)”: the stoichiometry N (commonly a count of units in the complex or per binding partner) is 3.

Source of the values: publication PMC10581125.
